Key:
Assay in all cases: fluorescence anisotropy
FOXO3a-DBD S253D = FOXO3a-DBD S253D (Homo sapiens, UniProt O43524 158-253, S253D)
FOXO3a-DBD RRR/AAA = FOXO3a-DBD RRR/AAA (Homo sapiens, UniProt O43524 158-253, R248A;R249A;R250A)
FOXO3a-DBD 158-240 = FOXO3a-DBD 158-240 (Homo sapiens, UniProt O43524 158-240)
FOXO3a-DBD WT = FOXO3a-DBD WT (Homo sapiens, UniProt O43524 158-253)
FOXO3a-DBD K242A = FOXO3a-DBD K242A (Homo sapiens, UniProt O43524 158-253, K242A)
FOXO3a-DBD K245A = FOXO3a-DBD K245A (Homo sapiens, UniProt O43524 158-253, K245A)
Chain of FOXO3a-DBD K245A (O43524 158-253 K245A): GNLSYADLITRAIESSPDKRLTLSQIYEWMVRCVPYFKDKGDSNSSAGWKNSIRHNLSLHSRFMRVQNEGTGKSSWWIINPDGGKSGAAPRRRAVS

Chain of FOXO3a-DBD 158-240 (O43524 158-240): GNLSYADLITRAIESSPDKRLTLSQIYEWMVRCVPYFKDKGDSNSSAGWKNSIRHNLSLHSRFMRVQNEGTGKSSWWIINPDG
Chain of FOXO3a-DBD S253D (O43524 158-253 S253D): as the sequence (O43524 158-253 K245A) above, with A88K, S96D counted along it
Chain of FOXO3a-DBD RRR/AAA (O43524 158-253 R248A/R249A/R250A): as the sequence (O43524 158-253 K245A) above, with A88K, R91A, R92A, R93A counted along it
Chain of FOXO3a-DBD K242A (O43524 158-253 K242A): as the sequence (O43524 158-253 K245A) above, with K85A, A88K counted along it
Chain of FOXO3a-DBD WT (O43524 158-253): as the sequence (O43524 158-253 K245A) above, with A88K counted along it

B1: 26-bp FOXO consensus FA duplex (dsDNA)
DNA 1: CGCATCCTATGTAAACAACTCGAGTC
DNA 2: GACTCGAGTTGTTTACATAGGATGCG
Kd (FOXO3a-DBD S253D): 549 ± 55 nM
Kd (FOXO3a-DBD RRR/AAA): 1180 ± 168 nM
Kd (FOXO3a-DBD 158-240): 1490 ± 197 nM
Kd (FOXO3a-DBD WT): 295 ± 26 nM
Kd (FOXO3a-DBD K242A): 399 ± 25 nM
Kd (FOXO3a-DBD K245A): 511 ± 63 nM
